Laboratory results reported in patent US20160052994A1.

Tests used:
[1] = biological target: Type I collagen (Nitta Gelatin Inc., type I-A: porcine origin) (porcine); experiment: solid-phase binding assay on coated type I collagen, detection with anti-FLAG antibody M2
[2] = biological target: Type I collagen (Nitta Gelatin Inc., type I-A: porcine origin) (porcine); experiment: solid-phase binding assay on coated type I collagen, detection with anti-laminin α5 antibody 5D6
[3] = biological target: Gelatin (Sigma, G1890-100G: porcine origin) (porcine); experiment: solid-phase binding assay on coated gelatin, detection with anti-laminin α5 antibody 5D6

Substance: CBD-fused laminin 311E8 fragment 311βγ (from UniProt Q16787 579-1364)
- fold binding activity against the form with a single CBD (311β) [1]: > 10 fold

Substance: CBD-fused laminin 121E8 fragment 121βγ (from UniProt P25391 1878-2700)
- fold binding activity against the form with a single CBD (121β) [1]: > 10 fold

Substance: CBD-fused laminin 221E8 fragment 221βγ (from UniProt P24043 1900-2722)
- fold binding activity against the form with a single CBD (221β) [1]: > 10 fold

Substance: CBD-fused laminin 521E8 fragment 521βγ (from UniProt O15230 2534-3327)
- fold binding activity against the form with a single CBD (521β) [1]: > 10 fold

Substance: CBD-fused laminin 411E8 fragment 411βγ (from UniProt Q16363 629-1449)
- fold binding activity against the form with a single CBD (411β) [1]: > 10 fold

Substance: CBD-fused laminin 511E8 fragment CBD-E8(αβγ)
- concentration at which the binding activity reached saturation [2]: 10 nM
- fold binding activity against the forms with a single CBD (monovalent forms) [2]: 10 fold
- fold binding activity against the monovalent forms [3]: 3 fold

Substance: CBD-fused laminin 421E8 fragment 421βγ (from UniProt Q16363 629-1449)
- fold binding activity against the form with a single CBD (421β) [1]: > 10 fold

Substance: CBD-fused laminin 511E8 fragment CBD-E8(βγ) (from UniProt O15230 2534-3327)
- concentration at which the binding activity reached saturation [2]: 10 nM
- fold binding activity against the forms with a single CBD (monovalent forms) [2]: 10 fold
- fold binding activity against the monovalent forms [3]: 3 fold

Substance: CBD-fused laminin 321E8 fragment 321βγ (from UniProt Q16787 579-1364)
- fold binding activity against the form with a single CBD (321β) [1]: > 10 fold

Substance: CBD-fused laminin 111E8 fragment 111βγ (from UniProt P25391 1878-2700)
- fold binding activity against the form with a single CBD (111β) [1]: > 10 fold

Substance: CBD-fused laminin 211E8 fragment 211βγ (from UniProt P24043 1900-2722)
- fold binding activity against the form with a single CBD (211β) [1]: > 10 fold
